# Laboratory results published in the supplement of paper PMC9170038.
# Legend:
# MS2 coat protein [1] = test: apparent KD of MS2 coat protein, switch ON state; designed switch direction (-1 OFF switch, 1 ON switch): 1; higher = weaker reporter binding; conditions: FMN input: 0 or 200 uM; Eterna round: R93 (includes R88 designs)
# Summary of the method: (§1)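 Apparent KD is reported per design as the median of normalised binding-curve fits across its clusters. The RNA switches were made by on-chip transcription from Illumina sequencing clusters. SNAP-549-labelled MS2 coat protein was then added in twofold steps (0.7 or 1.5 nM to 3 µM; 0.8–1.5 h to 10–20 min per step) in 100 mM Tris-HCl pH 7.5, 80 mM KCl, 4 mM MgCl2, without or with constant ligand.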
# MS2 coat protein [2] = test: apparent KD of MS2 coat protein, switch OFF state (with FMN for OFF switches, without FMN for ON switches); designed switch direction (-1 OFF switch, 1 ON switch): 1; higher = weaker reporter binding; conditions: FMN input: 0 or 200 uM; Eterna round: R93 (includes R88 designs)
# Summary of the method: as §1
Sequence,apparent KD of MS2 coat protein (MS2 coat protein [1]) [nM],apparent KD of MS2 coat protein (MS2 coat protein [2]) [nM]
AUAUGAGCUAUGGAGGAUAUCCAUAACAAGACAUGAGGAUCACCCAUGUAAUCAAAACAAUAAUGGGAGAAGGCCAUAGCUCAAU [SS 2 M47],76.3,50.9
GCAGGGCCACACUAGGAUAUGGGUGUCUAGACAUGAGGAUCACCCAUGUUAUGGCAAAACAAAGCUCAGAAGGAGUCGUGGCCCA [Tizasozaer],11.8,36
AAAAAACAUGAGGAUCACCCAUGUGCAAAAUUCGCAGGAUAUUCUUUUUUUAAAUGGGAGGGAGAAGGGUGUAAAA [Nob's Hobby 20 - Jieux - Same State 1],20.8,21.3
AUAAAAUAAAUUGAGGAUAUCUAUAAUAAAACAUGAGGAUCACCCAUGUUUAAACAAAGAUCAUGGGAGAAGGCAGAAAAUAAAU [SS2 M 37],12.5,20.6
AGAAAUAAAAGGCAGGAUAUCCAAAAAAAAACAUGAGGAUCACCCAUGUAAAAAAAAAAAAAAUGGGAGAAGGGCCAAAUAAAGA [Mat - Same State 2 - Eli mod - D88],16,37.5
AGAAGACAUGAGGAUCACCCAUGUGGGAAUAUGGGAGGAUAUACAAAGACGAGAGUCAGAGUAGAAGGCCUAGGAG [salish99-SS1-093],63.3,150
AAAUAAAUGACUAAGGAUAUAUCGAAGAAAACAUGAGGAUCACCCAUGUGAUAAUAAAAAGGGUGGUAGAAGGUAGUCAACAAAC [Mod 4 of Pariah 4 by Hyphema in Round 1],50.2,88
GAAGAACAUGAGGAUCACCCAUGUGUAGAAGCAUGAGGAUAUGUAAGUCAAAGAAAAACGAUAGAAGGCAUGGAGA [JR_SS001_Sub1714],141,119
AAAAACAUGGUGCAGGAUAUAUUAAUAGUCACAUGAGGAUCACCCAUGUUCAUUUAUAUGAACGAGUAGAAGGGCGAUGAAAAAA [Mat - Same state - Malcolm Mod - D111],247,410
UUUAAUUGCGGGCAGGAUAUGUAUUAAAAUACAUGAGGAUCACCCAUGUGCGGGUGUAACACCCGACAGAAGGGCCAAUCGCGAC [Bearisan],64.7,300
AAUACACAUGAGGAUCACCCAUGUAGAAACAAGUCAGGAUAUCCGAUCCACAUGUGAUAAGGAGAAGGGACAAUAA [SS 1 Tesla 7],25.5,163
AUAUAAAUAAGGUAGGAUAUACUAAAGUAAACAUGAGGAUCACCCAUGUGAAGAAAGAAACUCAUGUAGAAGGACCAUAUAUAUA [viburnum 2],27.2,248
GAAAAACAUGAGGAUCACCCAUGUAGAAAUAUGGGAGGAUAUACGAAGACGAAAGUCAAAGUAGAAGGCCUAAGAA [Mat - Same State 1 - Eli mod - D109],21.7,87.8
"GAUAAACAUGAGGAUCACCCAUGUAGAUAUAUGGGAGGAUAUACAAAGACGAUAGUCAAAGUAGAAGGCCUAAAAG [77%, Mat - Mod of Eli - With 3 more U's]",28.6,79.2
AAAAGAGCGACACAGGAUAUGUUGACUCUAACAUGAGGAUCACCCAUGUGCAUUUAGGGUCGUGCGCAGAAGGGUGUAGCUCGGA [Laesbibiti],11.7,24.7
AAAACACAUGAGGAUCACCCAUGUAGAAAUAUGGGAGGAUAUACGAAAACGAAAGACAAAGUAGAAGGCCUAAAAG [saturn 4],41.6,153
AACAAUCUAUCUGAGGAUAUCAUGUCAAAGACAUGAGGAUCACCCAUGUCUAGGAAAACUAGAUAUGAGAAGGCAGAUAGAUUGA [SS2 :P - 597],23.2,126
GUCCAACAUGAGGAUCACCCAUGUGCAUGACACCGAGGAUAUGGGACUAAAGGUGCUGGACCAGAAGGCGGAAGAA [Laceus],27.1,45.8
AUAAGACAUGAGGAUCACCCAUGUAUAAGAGCAUGAGGAUAUAUAAAAAGAAAAAGGAGAAUAGAAGGCAUAGUUG [JR_SS001_Sub1221],84.1,107
AAAAAACAAAGAGAGGAUAUCCAAAAAAAAACAUGAGGAUCACCCAUGUAAAGAAAUUUAAAAUGGGAGAAGGCUCUUUGAAAAA [Same State 2.6b ( Helter Skelter 1)],33.4,30.9
AGAAAUAAAAAUGAGGAUAUGCAAAAGAAAACAUGAGGAUCACCCAUGUAAAAGAAAAUAAAUGGGCAGAAGGCAUGAAAUAAAGA [Helter Skelter 3],33.8,75.1
CUGGACAUAGUACAGGAUAUAUGAAUAGUCACAUGAGGAUCACCCAUGUCCAUUUAUAUGGGCACAUAGAAGGGUGGUAGUUAAG [Mat - Same state - Malcolm Mod - D139],4.52,41.2

Sequence,apparent KD of MS2 coat protein (MS2 coat protein [1]) [nM],apparent KD of MS2 coat protein (MS2 coat protein [2]) [nM]
AAAACUACAGAUCAGGAUAUGUUUAGGUAAACAUGAGGAUCACCCAUGUGCACCUGAUAAACAACACAGAAGGGAUAACGUGGGA [Geerreleon],20.7,25.7
AACAAACAUGAGGAUCACCCAUGUCAAACAAACCAAGGAUAUGGGAAGCGAGACUCGCUACCAGAAGGUGGAAAUU [Edtigebe],43.8,176
AAAGAAGAAAGACAGGAUAUGGAUGGGUAAACAUGAGGAUCACCCAUGUAUAAGAAAGAAAGAAACCAGAAGGGUCAAAAGAAAA [Darius III],42.7,551
AAAAAAAAAUCACAGGAUAUACAAAAAAAAACAUGAGGAUCACCCAUGUAAAAAAAAAAAAAAAAGUAGAAGGGUGAUCCAAAAAA,12.1,9.28
AAUACACAUGGUCAGGAUAUCGCAGCUAGGACAUGAGGAUCACCCAUGUCGUACGUAACCGUAAAUGAGAAGGGACAGGGUGACC [JR_SS002_Sub408],145,54.1
CUUAGACAUGAGGAUCACCCAUGUCGAACAAACAAAGGAUAUGGGAGCCGAAGACGGCUAUUAGAAGGUUGCAAAA [Anrioned],28,26.4
UUUAAUUAUACGAAGGAUAUCGGUAAUUAGACAUGAGGAUCACCCAUGUUAUAUGGUUCCAUAUUCGAGAAGGUCGCGGGUGAAC [JR_SS002_Sub508],45.6,19.3
AAUAAAAAUAGUCAGGAUAUGAGAACUAAGACAUGAGGAUCACCCAUGUAAACAGAACAAGUAAAUCAGAAGGGACAGGGUGAAA [JR_SS002_Sub201],39.3,30.2
GUGGUACAUGAGGAUCACCCAUGUGUGGGAGCAUGAGGAUAUGUCAGUCCAUGAAAUACGAUAGAAGGCAUGGUGA [JR_SS001_Sub1712],234,264
GAAAAACAUGAGGAUCACCCAUGUCAAUAUAUGGGAGGAUAUACAAAGACGAAAGUCAAAGUAGAAGGCCUAAAAG,18.3,66.4
AAGAAACAUGAGGAUCACCCAUGUAAUAAUAUGGGAGGAUAUACAAGGACGUAAGUCAAGGUAGAAGGCCUAAGAA [Mat - Same State 1 - Meechl mod - D141],21,137
AUUAUUAUUACGCAGGAUAUCGAGGUUUUUACAUGAGGAUCACCCAUGUUUUUUUUUUUAUAUUACGAGAAGGGCGAUAUUAUUA [salish99-SS2-01],22.9,21.9
"AGGAAACAUGAGGAUCACCCAUGUAAAAAAUAUGGAGGAUAUACUAGAAGAAACAAAAUAGUAGAAGGCCAAAAAA [75%, Ex sub1, 31]",15.2,19.4
AAAUAACAUGAGGAUCACCCAUGUGGGCUUAAGCAAGGAUAUGGGCACUCAAAAGUAGCGCCAGAAGGUGCAGUCG [Anrabitien],56.1,145
GAGAGACAUGAGGAUCACCCAUGUAGGAUUAUGGGAGGAUAUACAAAGACGAGAGUCAGAGUAGAAGGCCUAGGAC [salish99-ss1-140],23.4,56.7
GAAGACAUAGUUCAGGAUAUGGGAAUAGUCACAUGAGGAUCACCCAUGUGCAUUUAUAUGCGCGCUCAGAAGGGAGGUAGAUAUA [SameState2 Malc#19],21,33.5
AAAUAGUGCAUUAAGGAUAUGUCGCAUGACACAUGAGGAUCACCCAUGUGGUAACACAGAGGGUGGCAGAAGGUAGUGUGCAAAC [Mod 3 of Pariah 6 (Round1) by Hyphema],108,15.1
AACAAUCUAUCUGAGGAUAUCAUGAAAAAAACAUGAGGAUCACCCAUGUGCAGGAAAACUGCAUAUGAGAAGGCAGAUAGAUUGA [SS2: 1101],21.6,913
AACUAACAUGAGGAUCACCCAUGUUACAGCAGUUGAGGAUAUGUGGGUGAAAAUAGCAUGGCAGAAGGCGAGUGUA [SameState1 Malc#24],53.9,127
AAAAAAAAAGUCGAGGAUAUCCACAUGGCGACAUGAGGAUCACCCAUGUGAAGAAAAGCACAUGAGGAGAAGGCGACAAAAAAAA [Same State 2.7a (Tightrope mod)],32.7,225
AUAACAACGUAUGAGGAUAUCCAUAAUAAAACAUGAGGAUCACCCAUGUGAAUAAAAUAACAAUGGGAGAAGGCAUACGUACAAU [SS 2 M 51],12.1,16
